According to article PMC2396507, “Analysis of the DNA Binding Activity of BRCA1 and Its Modulation by the Tumour Suppressor p53”:

What was measured:
p53 (GST fusion) [1] = molecular target: T1, p53 (GST fusion) (UniProt P04637 1-393); experiment: EMSA; 100-500 nM GST-p53, no BRCA1; 50 mM NaCl, 10 mM Tris-HCl pH 8.0, 0.5 mM EDTA, 1 mM DTT, 5% glycerol; 6% native PAGE in TAE at 4 C; incubation temperature not stated; settings: protein: recombinant, tags: N-terminal GST, uncleaved (pGEX2TKp53), chain copies: 4, label: 5'-32P when used as probe
BRCA1 230-534 [2] = molecular target: T2, BRCA1 230-534 (UniProt P38398 230-534); experiment: competition EMSA; 0.5 uM labelled linear duplex, 5 uM P1; 50 mM NaCl, 10 mM Tris-HCl pH 8.0, 0.5 mM EDTA, 1 mM DTT, 5% glycerol; 6% native PAGE in TAE at 4 C; incubation temperature not stated; settings: protein: recombinant, tags: none stated (expressed from pET22b), label: 5'-32P when used as probe
BRCA1 230-534 [3] = molecular target: T2, BRCA1 230-534; experiment: EMSA; 1-5 uM P1, 0.5 uM DNA; 50 mM NaCl, 10 mM Tris-HCl pH 8.0, 0.5 mM EDTA, 1 mM DTT, 5% glycerol; 6% native PAGE in TAE at 4 C; incubation temperature not stated; settings: protein: recombinant; tags: none stated (expressed from pET22b); label: 5'-32P when used as probe; duplex
p53 (GST fusion) [4] = molecular target: T1, p53 (GST fusion); experiment: EMSA; 100-500 nM GST-p53, no BRCA1; no binding at 200 nM (lane 8); 50 mM NaCl, 10 mM Tris-HCl pH 8.0, 0.5 mM EDTA, 1 mM DTT, 5% glycerol; 6% native PAGE in TAE at 4 C; incubation temperature not stated; settings: protein: recombinant; tags: N-terminal GST, uncleaved (pGEX2TKp53); chain copies: 4; label: 5'-32P when used as probe; four-way junction
[5] = duplex with C:C mismatches (design after triple lesions)

T2 sequence (P38398 230-534): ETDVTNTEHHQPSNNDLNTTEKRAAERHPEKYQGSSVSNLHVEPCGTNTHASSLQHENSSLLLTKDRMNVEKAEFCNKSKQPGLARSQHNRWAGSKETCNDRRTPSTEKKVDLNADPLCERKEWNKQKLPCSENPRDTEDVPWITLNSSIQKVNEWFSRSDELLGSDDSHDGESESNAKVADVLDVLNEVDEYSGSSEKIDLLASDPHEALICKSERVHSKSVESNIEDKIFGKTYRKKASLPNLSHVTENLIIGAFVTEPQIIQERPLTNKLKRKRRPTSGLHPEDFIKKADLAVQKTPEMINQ
T1 sequence (P04637 whole entry, the tested form may be a part): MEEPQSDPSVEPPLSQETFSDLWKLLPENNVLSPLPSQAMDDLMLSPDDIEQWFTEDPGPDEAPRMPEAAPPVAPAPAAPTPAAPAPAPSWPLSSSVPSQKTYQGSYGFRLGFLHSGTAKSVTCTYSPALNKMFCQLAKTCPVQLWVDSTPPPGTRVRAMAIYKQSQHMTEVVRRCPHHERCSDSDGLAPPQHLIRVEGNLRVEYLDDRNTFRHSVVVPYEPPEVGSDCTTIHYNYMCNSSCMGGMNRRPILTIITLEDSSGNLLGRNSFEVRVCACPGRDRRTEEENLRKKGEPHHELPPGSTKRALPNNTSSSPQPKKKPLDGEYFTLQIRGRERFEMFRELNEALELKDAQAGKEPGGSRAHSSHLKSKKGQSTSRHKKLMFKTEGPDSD

B1: bulge containing DNA (dsDNA)
DNA 1: CACGCTAAGTCCGATGCGTGAGATCCGC
DNA 2: GCGGATCTCACGCGTATCGGACTTAGCGTG
binding result (p53 (GST fusion) [1]; duplex with bulge): no binding
binding signal (BRCA1 230-534 [2]; duplex with bulge): 65 % reduction of P1 bound to labelled linear duplex at equimolar competitor

B2: C:C mismatch DNA (dsDNA)
DNA 1: CCCTCGGAGCACTGCACAACCCCTGGCCGCCG
DNA 2: CGGCGGCCAGCGGTTCTGCACTGCTCCGAGGG
binding result (p53 (GST fusion) [1]; [5]): no binding
binding signal (BRCA1 230-534 [2]; [5]): 70 % reduction of P1 bound to labelled linear duplex at equimolar competitor

B3: linear duplex DNA (dsDNA)
DNA 1: CCCTCGGAGCACTGCACAACCCCTGGCCGCCG
DNA 2: CGGCGGCCAGGGGTTGTGCAGTGCTCCGAGGG
binding result (BRCA1 230-534 [3]): binds

B4: four-way junction DNA (structured_DNA)
DNA 1: AGATCTGGCGTTAGGTGATACCGATGCATC
DNA 2: CATGCATCGGTATCAGGCTTACGACTAGTG
DNA 3: CACTAGTCGTAAGCCACTCGTGCTGAATTC
DNA 4: GAATTCAGCACGAGTCCTAACGCCAGATCT
binding result (p53 (GST fusion) [4]): binds
binding signal (BRCA1 230-534 [2]; four-way junction): 91 % reduction of P1 bound to labelled linear duplex at equimolar competitor
